These results are taken from article PMC3402474 (PLoS ONE, 2012).

A word on the stoichiometry N: it is a count of units in the complex or per binding partner.

B1: ammodytin L (natural protein)
chain: SVIEFGKMIQEETDKNPLTSYSFYGCHCGLGNKGKPKDATDRCCFVHSCCYAKLPDCSPKTNRYEYHRENGAIVCGSSTPCKKQICECDRAAAICFRENLKTYNKKYKVYLRFKCKGVSEKC
B2: ammodytoxin A (enzyme)
chain: SLLEFGMMILGETGKNPLTSYSFYGCYCGVGGKGTPKDATDRCCFVHDCCYGNLPDCSPKTDRYKYHRENGAIVCGKGTSCENRICECDRAAAICFRKNLKTYNYIYRNYPDFLCKKESEKC
B3: ammodytoxin B (enzyme)
chain: B2 chain with Y105H, R108M, N109Y
notes: also called AtxB
B4: ammodytoxin C (enzyme)
chain: B2 chain with F113I, K117E
notes: also called AtxC
B5: Bmh2 (natural protein, S. cerevisiae, UniProt P34730 1-273, looked up)
chain: MSQTREDSVYLAKLAEQAERYEEMVENMKAVASSGQELSVEERNLLSVAYKNVIGARRASWRIVSSIEQKEESKEKSEHQVELIRSYRSKIETELTKISDDILSVLDSHLIPSATTGESKVFYYKMKGDYHRYLAEFSSGDAREKATNSSLEAYKTASEIATTELPPTHPIRLGLALNFSVFYYEIQNSPDKACHLAKQAFDDAIAELDTLSEESYKDSTLIMQLLRDNLTLWTSDISESGQEDQQQQQQQQQQQQQQQQQAPAEQTQGEPTK
notes: also called yeast 14-3-3 protein Bmh2; recombinant Bmh2
B6: Bmh1 (natural protein, S. cerevisiae, UniProt P29311 1-267, looked up)
chain: MSTSREDSVYLAKLAEQAERYEEMVENMKTVASSGQELSVEERNLLSVAYKNVIGARRASWRIVSSIEQKEESKEKSEHQVELICSYRSKIETELTKISDDILSVLDSHLIPSATTGESKVFYYKMKGDYHRYLAEFSSGDAREKATNASLEAYKTASEIATTELPPTHPIRLGLALNFSVFYYEIQNSPDKACHLAKQAFDDAIAELDTLSEESYKDSTLIMQLLRDNLTLWTSDMSESGQAEDQQQQQQHQQQQPPAAAEGEAPK
notes: also called yeast 14-3-3 protein Bmh1; recombinant Bmh1

Where a chain is given by its changes, count along the chain named.

The target of data set [1] is B5. As to the kind of experiment: SPR. As to conditions: both partners purified.
The target of data set [2] is B6. The experiment in a line: SPR. As to conditions: both partners purified.
Data set [3] concerns the target B5. As to the kind of experiment: SPR; BiacoreX, 25°C; recombinant Bmh1 or Bmh2 in 50 mM Tris (pH 7.5), 150 mM NaCl, 0.1 mM CaCl2 immobilized to CM5 chips; 2 µM sPLA2 injected; dissociation monitored 180 s; responses corrected for surface density and molecular weights. As to conditions: both partners purified.
Data set [4] addresses B6. The data set is described as above. As to conditions: both partners purified.
The data set “dynamic light scattering” deals with the molecule itself. The experiment in a line: dynamic light scattering.

With B1, the binding result with Bmh2 [1] and in the data set with Bmh1 [2] was “binds” in each case.

Regarding B2, the binding result with Bmh2 [1] and in the data set with Bmh1 [2] was “binds” in each case.

With B3, the binding result with Bmh2 [3] and with Bmh1 [4] was “binds” in each case.

Turning to B4, the binding result in the data set with Bmh2 [3] and with Bmh1 [4] was “binds” throughout.

Consider B5, for which, in the data set “dynamic light scattering”, the “stoichiometry N” value came to 2.

Take B6: in the data set “dynamic light scattering”, the “stoichiometry N” value is 2.
